The values below come from patent US20240309051A1, “[…] T (TFH) CELLS […] TO SARS-COV-2 VIRUS” (priority 2021, published 2024).

This assay concerns the target T1, SARS-COV-2 S protein, S867-881 peptide with residue 3 (Q) of SEQ ID NO: 13 replaced with alanine peptide on … (human).
T1 peptide: DEMIAAYTSALLAGT
The assay is described as follows: activation reporter or marker.

B1: Clone 1 (TCR-017) (TCR)
alpha TRAV12-1 TRAJ12 CDR3: CVVNRGSSYKLIF
beta TRBV11-2 TRBJ2-7 CDR3: CASSQTYEQYF
As for B1, the binding result is recorded as “no recognition”.
